This test has as its target rat collagen type I (rat) (UniProt P02454). Put plainly: ELISA; rat collagen type I coated on a 96-well plate; rPnxIIIA variants applied at 10 μg/ml; detected with anti-6x Histidine tag monoclonal antibody, read as A620. (An ELISA detects its analyte on a solid surface through an enzyme-linked reagent.)
Sequence of UniProt P02454 (P02454 152-1207, chain 1 of 2): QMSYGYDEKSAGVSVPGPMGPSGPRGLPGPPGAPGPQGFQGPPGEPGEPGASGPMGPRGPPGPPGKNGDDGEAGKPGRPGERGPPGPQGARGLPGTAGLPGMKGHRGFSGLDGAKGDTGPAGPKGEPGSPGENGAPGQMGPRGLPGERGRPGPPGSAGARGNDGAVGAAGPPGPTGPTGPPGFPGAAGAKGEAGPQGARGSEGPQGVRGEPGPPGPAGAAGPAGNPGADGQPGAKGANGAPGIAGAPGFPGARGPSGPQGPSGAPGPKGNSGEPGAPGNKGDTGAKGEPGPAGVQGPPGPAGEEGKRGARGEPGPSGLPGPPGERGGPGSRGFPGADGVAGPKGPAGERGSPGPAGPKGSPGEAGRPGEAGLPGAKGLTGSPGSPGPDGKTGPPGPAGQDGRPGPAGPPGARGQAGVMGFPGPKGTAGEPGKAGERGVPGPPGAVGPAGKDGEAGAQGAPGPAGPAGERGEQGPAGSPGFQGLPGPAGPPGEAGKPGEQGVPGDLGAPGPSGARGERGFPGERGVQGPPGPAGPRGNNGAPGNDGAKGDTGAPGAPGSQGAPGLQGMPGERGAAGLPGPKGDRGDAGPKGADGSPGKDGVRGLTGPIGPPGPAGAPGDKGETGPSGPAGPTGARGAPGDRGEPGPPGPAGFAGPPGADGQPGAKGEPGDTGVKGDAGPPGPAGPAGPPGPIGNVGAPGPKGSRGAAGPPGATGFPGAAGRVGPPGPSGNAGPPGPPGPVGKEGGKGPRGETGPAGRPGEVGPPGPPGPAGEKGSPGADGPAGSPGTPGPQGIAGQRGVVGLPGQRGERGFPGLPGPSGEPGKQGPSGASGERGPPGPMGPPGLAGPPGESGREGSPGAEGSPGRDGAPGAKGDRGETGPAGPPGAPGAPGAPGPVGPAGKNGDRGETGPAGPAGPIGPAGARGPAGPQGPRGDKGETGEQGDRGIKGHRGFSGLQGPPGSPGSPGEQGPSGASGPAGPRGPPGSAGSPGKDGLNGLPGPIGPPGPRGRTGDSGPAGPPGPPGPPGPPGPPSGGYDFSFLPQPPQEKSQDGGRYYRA
Sequence of UniProt P02454 (P02466 86-1125, chain 2 of 2, further chain): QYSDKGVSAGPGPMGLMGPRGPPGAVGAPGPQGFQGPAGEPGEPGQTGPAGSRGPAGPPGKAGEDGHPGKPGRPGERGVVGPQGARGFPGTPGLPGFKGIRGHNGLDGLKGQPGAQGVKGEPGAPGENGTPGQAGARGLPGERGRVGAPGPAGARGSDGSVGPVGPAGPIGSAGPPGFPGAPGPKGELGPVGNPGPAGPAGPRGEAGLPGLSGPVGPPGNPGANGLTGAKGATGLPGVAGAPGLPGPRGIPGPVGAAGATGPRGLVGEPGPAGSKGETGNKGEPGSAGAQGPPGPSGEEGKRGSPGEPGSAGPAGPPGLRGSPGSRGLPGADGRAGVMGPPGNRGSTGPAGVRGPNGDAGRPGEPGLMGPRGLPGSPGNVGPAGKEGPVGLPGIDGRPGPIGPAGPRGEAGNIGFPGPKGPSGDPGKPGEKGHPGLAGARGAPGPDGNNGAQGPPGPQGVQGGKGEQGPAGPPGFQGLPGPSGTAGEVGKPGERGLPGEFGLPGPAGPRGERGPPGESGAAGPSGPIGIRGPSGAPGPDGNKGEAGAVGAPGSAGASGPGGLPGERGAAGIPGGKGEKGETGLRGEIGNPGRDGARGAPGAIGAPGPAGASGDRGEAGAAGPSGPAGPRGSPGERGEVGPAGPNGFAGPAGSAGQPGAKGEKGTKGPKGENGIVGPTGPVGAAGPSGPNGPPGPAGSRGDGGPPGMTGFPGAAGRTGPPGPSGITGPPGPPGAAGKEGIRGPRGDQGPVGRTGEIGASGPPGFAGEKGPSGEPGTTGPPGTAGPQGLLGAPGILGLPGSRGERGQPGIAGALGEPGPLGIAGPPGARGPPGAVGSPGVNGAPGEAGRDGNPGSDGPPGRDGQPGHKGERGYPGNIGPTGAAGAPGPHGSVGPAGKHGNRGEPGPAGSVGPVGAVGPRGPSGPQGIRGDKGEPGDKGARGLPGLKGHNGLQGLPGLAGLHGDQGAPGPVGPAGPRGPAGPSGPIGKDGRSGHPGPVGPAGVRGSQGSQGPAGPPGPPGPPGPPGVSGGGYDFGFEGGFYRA

In turn, “Recombinant PnxIIIA protein (natural protein)” came in with an A620 at 10 μg/ml of 0.55 A620.

For the origin of these results see paper PMC3075217.
